From patent US20240425571A1 (OHIO STATE INNOVATION FOUNDATION, published 2024) come the findings set out here.

In assay [1] the target is T1, human GARP (glycoprotein A repetitions predominant, LRRC32) on the cell surface (human, UniProt Q14392 20-662).
T1 construct: whole, on cells; also called hGARP; free GARP
T1 sequence (looked up): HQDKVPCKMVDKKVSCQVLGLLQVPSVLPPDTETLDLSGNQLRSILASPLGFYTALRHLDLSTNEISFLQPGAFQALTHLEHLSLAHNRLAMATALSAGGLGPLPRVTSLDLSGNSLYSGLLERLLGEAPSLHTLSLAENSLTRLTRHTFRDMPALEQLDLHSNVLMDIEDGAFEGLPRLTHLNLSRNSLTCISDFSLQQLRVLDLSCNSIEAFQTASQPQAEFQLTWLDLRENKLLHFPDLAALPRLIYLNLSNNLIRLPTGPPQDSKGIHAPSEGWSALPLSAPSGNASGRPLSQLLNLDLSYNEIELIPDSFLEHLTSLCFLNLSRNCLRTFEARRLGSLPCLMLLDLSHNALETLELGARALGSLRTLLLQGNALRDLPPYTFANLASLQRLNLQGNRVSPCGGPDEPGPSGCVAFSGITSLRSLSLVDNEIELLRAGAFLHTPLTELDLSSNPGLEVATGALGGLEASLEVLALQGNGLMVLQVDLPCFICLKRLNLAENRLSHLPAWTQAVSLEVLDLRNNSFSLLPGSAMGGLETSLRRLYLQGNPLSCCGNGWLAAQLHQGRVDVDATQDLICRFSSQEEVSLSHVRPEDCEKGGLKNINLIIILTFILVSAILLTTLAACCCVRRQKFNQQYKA
In words: FACS, Ag(+) cells, culture supernatant, 1 ug/ml.

Assay [2] has as its target T1, human GARP (glycoprotein A repetitions …). In words: FACS, Ag(+) cells, 0 ug/ml antibody (blank).
Assay [3] has the same target. In words: FACS, Ag(+) cells, heated-sample series, 0 ug/ml antibody (blank).
The target is the same in assay [4]. In words: FACS, Ag(+) cells, supernatant heated 70 C 5 min, 1 ug/ml.
The target is the same in assay [5]. Briefly: FACS, Ag(+) cells, culture supernatant, 5 ug/ml.
For assay [6] the target is unchanged. Briefly: FACS, Ag(+) cells, supernatant heated 70 C 5 min, 5 ug/ml.
Assay [7] shares this target. Briefly: FACS, Ag(+) cells, supernatant heated 70 C 5 min, 0.2 ug/ml.
The target is the same in assay [8]. In words: FACS, Ag(+) cells, culture supernatant, 0.2 ug/ml.
The target is the same in assay [9]. In words: flow cytometry on human Tregs (drawn table).

B1: huPIIO-1VH4VL1 (antibody, V domains shown)
VH: DVQLQESGPGLVKPSQTLSLTCTVSGYSITSDYAWNWIRQFPGNKLEWMGYISYSGSTSYTPSLKSRITISRDTSKNHFFLQLSSVTAEDTATYYCAKSGGDYYGSSSYWYFDVWGQGTTVTVSS
VL: DIVLTQSPSSLAVSLGERATMNCKSSQSLLNSRSQKNYLAWYQQKPGQPPKLLIYGASTRGSGVPDRFSGSGSGTDFTLTISSLQAEDVAVYYCQNDHSYPFTFGQGTKLEIKR
notes: Humanized IgG from Expi293, tested as culture supernatant; also called H4L1; HuPIIO-1VH4/L1
Turning to B1, the MFI in [1] amounted to 26.2 MFI; in assay [2], 9.91 MFI; in assay [3], 9.91 MFI; in assay [4] it was 25.4 MFI; in assay [5], 27.3 MFI; in assay [6], 26.9 MFI. In addition, the MFI worked out at 24.2 MFI in assay [7] and 24.8 MFI in assay [8].

B2: huPIIO-1VH4VL3 (antibody, V domains shown)
VH: DVQLQESGPGLVKPSQTLSLTCTVSGYSITSDYAWNWIRQFPGNKLEWMGYISYSGSTSYTPSLKSRITISRDTSKNHFFLQLSSVTAEDTATYYCAKSGGDYYGSSSYWYFDVWGQGTTVTVSS
VL: DIVLTQSPSSLAVSAGERVTMSCKSSQSLLNSRSQKNYLAWYQQKPGQPPKLLIYGASTRGSGVPDRFSGSGSGTDFTLTISSVQAEDVAVYYCQNDHSYPFTFGSGTKLEIKR
notes: Humanized IgG from Expi293, tested as culture supernatant; also called H4L3; HuPIIO-1VH4/L3
Regarding B2, the MFI in [1] came to 26.3 MFI; in assay [2], 9.91 MFI; in assay [3] it was 9.91 MFI; in assay [4], 25.8 MFI; in assay [5] it was 26.7 MFI; in assay [6], 27 MFI. In addition, the figures for the MFI in [7] and in [8] were 24.2 MFI and 25 MFI, respectively.

B3: huPIIO-1VH4VL2 (antibody, V domains shown)
VH: DVQLQESGPGLVKPSQTLSLTCTVSGYSITSDYAWNWIRQFPGNKLEWMGYISYSGSTSYTPSLKSRITISRDTSKNHFFLQLSSVTAEDTATYYCAKSGGDYYGSSSYWYFDVWGQGTTVTVSS
VL: DIVLTQSPSSLAVSLGERVTMNCKSSQSLLNSRSQKNYLAWYQQKPGQPPKLLIYGASTRGSGVPDRFSGSGSGTDFTLTISSVQAEDVAVYYCQNDHSYPFTFGQGTKLEIKR
notes: Humanized IgG from Expi293, tested as culture supernatant; also called H4L2; HuPIIO-1VH4/L2
Take B3: the MFI in assay [1] was 24.9 MFI; in [2], 9.91 MFI; in assay [3], 9.91 MFI; in assay [4], 25 MFI; in assay [5], 26.3 MFI; in [6], 25.1 MFI. Moreover, the values for the MFI in [7] and in [8] were 21.7 MFI and 22.4 MFI, respectively.

B4: 5C5 (antibody, V domains shown)
VH: EVKLVESGGGSVKPGGSLKLSCAASGFTFSNYVMSWVRQTPEKRLEWVATISSGGSYTYYPDSVKGRLTISRDNAKNTLYLQMSSLRSEDTAMYYCARGYDNGDYVMDYWGQGTSVTVSS
VL: DIVLTQSPASLAVSLGQRATISCRASESVDTYGNSFMHWYQQIPGQPPKVLIYRASNLESGIPARFSGSGSRTDFTLTINPVEAGDVATYYCQQTNEHPPTFGGGTKLEIK
notes: anti-human GARP clone; printed 5C5 on the sheets, 5c5 / m5c5 / 5C5 in the text; also called m5c5
B4: the binding result in assay [9] is “binds”.
